The source of these data is paper PMC12373785, “Biochemical characterisation supports a central role for Oep80 from Arabidopsis thaliana in chloroplastic β-barrel protein assembly” (Communications Biology, 2025).

What is called stoichiometry N is a count of units in the complex or per binding partner.

B1: Oep80^β-6×His (β-barrel domain of Arabidopsis thaliana Oep80, C-terminal 6×His) (domain or fragment, A. thaliana, UniProt Q9C5J8 398-732, looked up)
chain: SGGFSAGGGISSGITSGPLSGLIGSFAYSHRNLFGRNQKLNVSLERGQIDSIFRINYTDPWIEGDDKRTSRSIMVQNSRTPGNLVHGNQPDNSSLTIGRVTAGVEYSRPFRPKWNGTAGLIFQHAGARDEQGNPIIKDFYSSPLTASGKPHDETMLAKLESIYTGSGDQGSTMFAFNMEQGLPVLPEWLCFNRVTGRARKGIHIGPARFLFSLSGGHVVGKFSPHEAFVIGGTNSVRGYEEGAVGSGRSYVVGSGELSFPVRGPVEGVIFTDYGTDMGSGSTVPGDPAGARLKPGSGYGYGLGVRVDSPLGPLRLEYAFNDQHAGRFHFGVGLRN
notes: AtOep80 (also known as Toc75-V), A. thaliana, β barrel domain, residues 398-732; Mostly dimeric in solution by native MS; Cloned in modified Pet15b for the C-terminal 6×His; also called AtOep80 β barrel domain; Toc75-V β-barrel domain; not shown: His6, C-terminal, kept

For data set [1], the target named is Oep80^β mutant with the Oep21a β-1 peptide sequence covalently attached via a flexible GS linker (A. thaliana) (UniProt Q9C5J8). The experiment in a line: native MS; protein alone, buffer-exchanged into 200 mM ammonium acetate pH 8.0, 0.5% C8E4; for the oxidised C587S/S408C/G727C mutant 0.1 mM CuSO4 pre-incubated 4 h before buffer exchange; monomer and dimer charge state series.

Data set [2] concerns the molecule itself. The data set is described as above.
In data set [3] the target is B1. The experiment in a line: native MS; 100 µM peptide with 7 µM Oep80^β-6×His in 200 mM ammonium acetate pH 8.0, 0.5% C8E4; peptide-bound relative to unbound species, n = 4. The following applies: both partners purified.

Consider “Oep80^β mutant with the Oep21a β-1 peptide sequence covalently attached via a flexible GS linker (from UniProt Q9C5J8 398-732)”, for which the stoichiometry N in data set [1] came to 2.

As for B1, the “stoichiometry N” value in data set [2] is 2.

B2: untagged Oep80^β (6×His-Oep80^β after thrombin cleavage) (domain or fragment, A. thaliana, UniProt Q9C5J8 398-732, looked up)
chain: SGGFSAGGGISSGITSGPLSGLIGSFAYSHRNLFGRNQKLNVSLERGQIDSIFRINYTDPWIEGDDKRTSRSIMVQNSRTPGNLVHGNQPDNSSLTIGRVTAGVEYSRPFRPKWNGTAGLIFQHAGARDEQGNPIIKDFYSSPLTASGKPHDETMLAKLESIYTGSGDQGSTMFAFNMEQGLPVLPEWLCFNRVTGRARKGIHIGPARFLFSLSGGHVVGKFSPHEAFVIGGTNSVRGYEEGAVGSGRSYVVGSGELSFPVRGPVEGVIFTDYGTDMGSGSTVPGDPAGARLKPGSGYGYGLGVRVDSPLGPLRLEYAFNDQHAGRFHFGVGLRN
notes: AtOep80 (Toc75-V), A. thaliana, β barrel domain, residues 398-732; also called tag-free Oep80^β; not shown: His6, N-terminal, cleaved
B2: the “stoichiometry N” value in data set [2] amounted to 2.

B3: 6×His-Oep80^β (N-terminally tagged β-barrel domain of A. thaliana Oep80) (domain or fragment, UniProt Q9C5J8 398-732, looked up)
chain: SGGFSAGGGISSGITSGPLSGLIGSFAYSHRNLFGRNQKLNVSLERGQIDSIFRINYTDPWIEGDDKRTSRSIMVQNSRTPGNLVHGNQPDNSSLTIGRVTAGVEYSRPFRPKWNGTAGLIFQHAGARDEQGNPIIKDFYSSPLTASGKPHDETMLAKLESIYTGSGDQGSTMFAFNMEQGLPVLPEWLCFNRVTGRARKGIHIGPARFLFSLSGGHVVGKFSPHEAFVIGGTNSVRGYEEGAVGSGRSYVVGSGELSFPVRGPVEGVIFTDYGTDMGSGSTVPGDPAGARLKPGSGYGYGLGVRVDSPLGPLRLEYAFNDQHAGRFHFGVGLRN
notes: AtOep80 (Toc75-V), A. thaliana, β barrel domain, residues 398-732; Cloned in Pet28a (N-terminal 6×His, removable by thrombin); also called tagged Oep80^β; 6×His-tagged version; not shown: His6, N-terminal, kept
In the case of B3, the “stoichiometry N” value in data set [2] stood at 2.

B4: Oep80^β C587S/S408C/G727C (domain or fragment, A. thaliana, UniProt Q9C5J8 398-732, looked up)
chain: SGGFSAGGGICSGITSGPLSGLIGSFAYSHRNLFGRNQKLNVSLERGQIDSIFRINYTDPWIEGDDKRTSRSIMVQNSRTPGNLVHGNQPDNSSLTIGRVTAGVEYSRPFRPKWNGTAGLIFQHAGARDEQGNPIIKDFYSSPLTASGKPHDETMLAKLESIYTGSGDQGSTMFAFNMEQGLPVLPEWLSFNRVTGRARKGIHIGPARFLFSLSGGHVVGKFSPHEAFVIGGTNSVRGYEEGAVGSGRSYVVGSGELSFPVRGPVEGVIFTDYGTDMGSGSTVPGDPAGARLKPGSGYGYGLGVRVDSPLGPLRLEYAFNDQHAGRFHFCVGLRN
modifications: intramolecular disulfide between the introduced cysteines 408 and 727 (after Cu2+ incubation)
notes: AtOep80, A. thaliana, β barrel domain, residues 398-732, with native cysteine C587 removed and cysteines introduced in the β1 and β-1 strands
Take B4: in data set [2], the “stoichiometry N” value came out at 2.

B5: Oep21a β-1 wild-type peptide (peptide)
peptide: GKWNVRYDL
notes: also called Oep21a β-signal peptide; Oep21a β-1 w.t; source: synthetic peptide, bought: Proteogenix (99% purity)
As to B5, the binding result in data set [3] is reported as “binds”.

B6: Oep21a β-1 D-to-A peptide (peptide)
peptide: GKWNVRYAL
notes: A. thaliana Oep21a β-1, residues 159-167, penultimate residue D changed to A; also called D-to-A mutant; source: synthetic peptide, bought: Proteogenix (99% purity)
On to B6, for which, in data set [3], the binding result was “binds”.

B7: Oep21a β-1 D-to-E peptide (peptide)
peptide: GKWNVRYEL
notes: A. thaliana Oep21a β-1, residues 159-167, penultimate residue D changed to E; also called D-to-E mutation; source: synthetic peptide, bought: Proteogenix (99% purity)
Take B7: the binding result in data set [3] is “binds”.
